Assay results: patent US20190359683A1 (published 2019)
Read-outs that look alike come from different tables or passages of the source.

How the values were obtained:
[1] = biological target: T1, recombinant human cardiotrophin-like cytokine factor 1 (CLCF1) (human, UniProt Q9UBD9 28-225)
T1 chain: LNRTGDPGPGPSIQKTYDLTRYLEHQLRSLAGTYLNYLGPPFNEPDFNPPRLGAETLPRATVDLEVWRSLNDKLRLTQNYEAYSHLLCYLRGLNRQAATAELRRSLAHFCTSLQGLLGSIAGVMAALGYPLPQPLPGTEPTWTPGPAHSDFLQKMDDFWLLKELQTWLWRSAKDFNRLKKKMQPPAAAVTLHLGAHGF

[2] = biological target: T1, recombinant human cardiotrophin-like …
[3] = biological target: 1; experiment: yeast display binding; apparent Kd
[4] = biological target: 5; experiment: yeast display binding; apparent Kd
[5] = biological target: 3; experiment: yeast display binding; apparent Kd
[6] = biological target: 2; experiment: yeast display binding; apparent Kd
[7] = biological target: T1, recombinant human cardiotrophin-like …; experiment: ELISA

B1: yeast-displayed CNTFR variant 4 (R110Q, T174P, S237F, I287F) (protein)
chain: VYAQRHSPQEAPHVQYERLGSDVTLPCGTANWDAAVTWRVNGTDLAPDLLNGSQLVLHGLELGHSGLYACFHRDSWHLRHQVLLHVGLPPQEPVLSCRSNTYPKGFYCSWHLPTPTYIPNTFNVTVLHGSKIMVCEKDPALKNRCHIRYMHLFSPIKYKVSISVSNALGHNATAITFDEFTIVKPDPPENVVARPVPSNPRRLEVTWQTPSTWPDPEFFPLKFFLRYRPLILDQWQHVELSDGTAHTITDAYAGKEYIIQVAAKDNEFGTWSDWSVAAHATPWTEEPRHLTTEAQAAETTTSTTSSLAPPPTTKICDPGELGS
Question: What does the source list for B1?
Answer: Kd [1]: 19 nM; Kd [2]: 0.019 nM

B2: CLCF1 (ligand)
chain: LNRTGDPGPGPSIQKTYDLTRYLEHQLRSLAGTYLNYLGPPFNEPDFNPPRLGAETLPRATVDLEVWRSLNDKLRLTQNYEAYSHLLCYLRGLNRQAATAELRRSLAHFCTSLQGLLGSIAGVMAALGYPLPQPLPGTEPTWTPGPAHSDFLQKMDDFWLLKELQTWLWRSAKDFNRLKKKMQPPAAAVTLHLGAHGF
Question: How did the Kd [3] turn out when B2 was run?
Answer: 4100 nM

Question: What about the Kd [4] of the same binder?
Answer: 740 nM

Question: What about the Kd [5] of the same binder?
Answer: 49 nM

Question: What about the Kd [6] of the same binder?
Answer: 890 nM

B3: eCNTFR-HIS (soluble engineered CNTFR with His-tag) (receptor)
chain: QRHSPQEAPHVQYERLGSDVTLPCGTANWDAAVTWRVNGTDLAPDLLNGSQLVLHGLELGHSGLYACFHRDSWHLRHQVLLHVGLPPQEPVLSCRSNTYPKGFYCSWHLPTPTYIPNTFNVTVLHGSKIMVCEKDPALKNRCHIRYMHLFSPIKHNVSISVSNALGHNATAITFDEFTIVKPDPPENVVARPVPSNPRRLEVTWQTPSTWPDPEFFPLKFFLRYRPLILDQWQHVELSDGTAHTIAAAYAGKEYIIQVAAKDNEFGTWSDWSVAAHATPWTEEPRHLTTEAQAAETTTSTTSSLAPPPTTKICDPGELGS
Question: With B3 as the binder, how does the Kd [7] read?
Answer: 0.075 nM

B4: eCNTFR-Fc (soluble engineered CNTFR fused to mouse IgG2a Fc) (Fc fusion)
chain: QRHSPQEAPHVQYERLGSDVTLPCGTANWDAAVTWRVNGTDLAPDLLNGSQLVLHGLELGHSGLYACFHRDSWHLRHQVLLHVGLPPQEPVLSCRSNTYPKGFYCSWHLPTPTYIPNTFNVTVLHGSKIMVCEKDPALKNRCHIRYMHLFSPIKHNVSISVSNALGHNATAITFDEFTIVKPDPPENVVARPVPSNPRRLEVTWQTPSTWPDPEFFPLKFFLRYRPLILDQWQHVELSDGTAHTIAAAYAGKEYIIQVAAKDNEFGTWSDWSVAAHATPWTEEPRHLTTEAQAAETTTSTTSSLAPPPTTKICDPGELGSRRLEPRGPTIKPCPPCKCPAPNLLGGPSVFIFPPKIKDVLMISLSPIVTCVVVDVSEDDPDVQISWFVNNVEVHTAQTQTHREDYNSTLRVVSALPIQHQDWMSGKEFKCKVNNKDLPAPIERTISKPKGSVRAPQVYVLPPPEEEMTKKQVTLTCMVTDFMPEDIYVEWTNNGKTELNYKNTEPVLDSDGSYFMYSKLRVEKKNWVERNSYSCSVVHEGLHNHHTTKSFSRTPGK
Question: B4 was tested. Which Kd [7] did it give?
Answer: 0.063 nM
